Measurements taken from US20230012273A1 (Boehringer Ingelheim, published 2023).

What was measured:
[1] = target: T1, SIRPαV2 domain 1 (amino acids 31-148) with N-terminal GST tag (human, UniProt Q5TFQ8 30-148); assay: crystal structure
T1 construct: also called domain 1 of the extracellular domain of human SIRPα-V2
Method: Protein was expressed in Origami B(DE3) cells and purified using standard protocols for GST-tagged proteins. Fractions were analyzed by SDS-PAGE and fractions containing the desired protein were pooled and concentrated to 24 mg/ml in 25 mM HEPES; 100 mM NaCl; 5% Glycerin; pH 7,0.

[2] = target: T2, full-length human SIRPγ (NP_061026.2) on cells (human, UniProt Q9P1W8 29-387); assay: flow cytometry, primary human CD3+ T cells
T2 construct: on CHO and Expi-CHO cells; endogenous on primary human CD3+ T cells; also called γ WT
Method: Antibody binding to primary human T cells expressing endogenous SIRPγ is evaluated by flow cytometry. Human peripheral blood mononuclear cells (PBMCs) are blocked with donkey IgG and incubated on ice with increasing concentrations of antibody for 60 minutes, washed and stained with AF647-conjugated donkey F(ab′)₂ anti-human IgG secondary reagent. […] Cells are washed, fixed, and analyzed by flow cytometry. Median fluorescent intensity of CD3+ gated population is determined and used as a measure of antibody binding.

[3] = target: T3, full-length human SIRPβL (NP_001129316.1) on cells (human, UniProt Q5TFQ8 30-398); assay: flow cytometry, U937 SIRPα KO cells
T3 construct: on U937 SIRPα KO cells and Expi-CHO cells; also called βL WT; SIRPβ1v3
Method: Antibody binding to cells expressing full-length human SIRPβ1 (NP_006056.2) and SIRPβL (NP_001129316.1) is evaluated by flow cytometry. SIRPβ1- or SIRPβL-expressing U937^{SIRPα KO} cells are blocked with donkey IgG and incubated on ice with increasing concentrations of antibodies for 60 minutes, washed and stained with AF647-conjugated donkey F(ab′)₂ anti-human IgG secondary reagent. Cells are washed, fixed, and analyzed by flow cytometry. Median fluorescent intensity is determined and used as a measure of antibody binding.

[4] = target: T4, cynomolgus SIRPα extracellular domain + His-tag (NP_001271679) (cynomolgus monkey); assay: SPR, Ab captured, ECD-His analyte
T4 construct: also called CySIRPα NP_001271679; cynoSIRPα
T4 chain: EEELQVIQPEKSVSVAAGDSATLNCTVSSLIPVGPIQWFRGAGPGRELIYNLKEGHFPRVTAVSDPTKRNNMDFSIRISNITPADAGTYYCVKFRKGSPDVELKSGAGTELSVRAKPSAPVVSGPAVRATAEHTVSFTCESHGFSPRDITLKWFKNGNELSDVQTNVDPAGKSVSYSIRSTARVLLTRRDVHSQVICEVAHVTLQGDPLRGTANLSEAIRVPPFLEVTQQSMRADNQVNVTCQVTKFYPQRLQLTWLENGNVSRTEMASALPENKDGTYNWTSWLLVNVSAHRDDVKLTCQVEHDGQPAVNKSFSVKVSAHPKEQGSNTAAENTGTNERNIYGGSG
In short: (§1)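 In HBS-EP+ (1×), captured antibodies are exposed to a twofold concentration series of SIRP extracellular domain carrying a His tag, using 300 s contact at 30 μl/min and a 600 s dissociation window.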

[5] = target: T5, mouse SIRPα extracellular domain + His-tag (NP_031573) (mouse, UniProt P97797 32-373); assay: SPR, Ab captured, ECD-His analyte
T5 chain: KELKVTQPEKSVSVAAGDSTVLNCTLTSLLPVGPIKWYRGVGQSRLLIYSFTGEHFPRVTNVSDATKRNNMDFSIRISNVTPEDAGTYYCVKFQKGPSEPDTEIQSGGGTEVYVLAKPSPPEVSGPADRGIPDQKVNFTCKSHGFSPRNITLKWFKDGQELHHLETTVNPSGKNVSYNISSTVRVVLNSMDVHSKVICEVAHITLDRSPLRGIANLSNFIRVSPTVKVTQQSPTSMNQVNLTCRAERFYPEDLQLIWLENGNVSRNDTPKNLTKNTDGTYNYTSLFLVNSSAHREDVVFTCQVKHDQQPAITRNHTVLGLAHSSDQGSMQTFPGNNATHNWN
In short: as §1

[6] = target: T6, cynomolgus SIRPβ1v3 extracellular domain + His-tag (XP_005568593) (cynomolgus monkey); assay: SPR, Ab captured, ECD-His analyte
T6 construct: also called Cyno SIRPβ1v3; cynoSIRPβ1v3
T6 chain: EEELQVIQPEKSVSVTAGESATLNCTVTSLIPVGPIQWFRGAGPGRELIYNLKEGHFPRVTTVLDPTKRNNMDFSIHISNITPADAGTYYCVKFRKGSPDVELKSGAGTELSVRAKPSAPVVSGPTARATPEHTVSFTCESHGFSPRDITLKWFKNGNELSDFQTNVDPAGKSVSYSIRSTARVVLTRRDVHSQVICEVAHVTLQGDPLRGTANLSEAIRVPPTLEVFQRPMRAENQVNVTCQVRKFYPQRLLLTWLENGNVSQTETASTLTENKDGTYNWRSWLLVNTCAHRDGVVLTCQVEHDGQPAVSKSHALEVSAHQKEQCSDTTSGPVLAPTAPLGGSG
In short: as §1

[7] = target: T7, cynomolgus SIRPα extracellular domain + His-tag (EGM_02252) (cynomolgus monkey); assay: SPR, Ab captured, ECD-His analyte
T7 construct: also called CySIRPα EGM_02252; cynoSIRPα
T7 chain: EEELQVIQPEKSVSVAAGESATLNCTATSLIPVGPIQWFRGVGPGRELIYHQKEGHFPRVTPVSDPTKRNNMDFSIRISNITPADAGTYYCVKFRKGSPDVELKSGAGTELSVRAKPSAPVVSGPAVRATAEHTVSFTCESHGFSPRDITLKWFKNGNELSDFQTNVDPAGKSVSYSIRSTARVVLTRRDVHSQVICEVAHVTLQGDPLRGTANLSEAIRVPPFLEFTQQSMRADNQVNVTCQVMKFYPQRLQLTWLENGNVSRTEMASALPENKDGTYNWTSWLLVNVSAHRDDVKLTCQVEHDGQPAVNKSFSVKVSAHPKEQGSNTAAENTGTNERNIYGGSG
In short: as §1

[8] = target: T8, human SIRPγ extracellular domain + His-tag (NP_061026.2) (human, UniProt Q9P1W8 29-360); assay: SPR, Ab captured, ECD-His analyte
T8 construct: also called hSIRPγ; HuSIRPγ
In short: as §1

[9] = target: T9, human SIRPβL/SIRPβ1v3 extracellular domain + His-tag (NP_001129316.1) (human, UniProt Q5TFQ8 30-371); assay: SPR, Ab captured, ECD-His analyte
T9 construct: also called hSIRPβ1v3; HuSIRPβ1v3
In short: as §1

[10] = target: T10, human SIRPβ1 extracellular domain + His-tag (NP_006056.2) (human, UniProt O00241 30-371); assay: SPR, Ab captured, ECD-His analyte
T10 construct: also called hSIRPβ1; HuSIRPβ1
In short: as §1

[11] = target: T11, cynomolgus SIRPβ1v3 (XP_005568593) extracellular domain + His-tag (cynomolgus monkey); assay: SPR, antibody captured, ECD-His analyte
T11 construct: SPR analyte; also called Cyno SIRPβ1v3 XP_005568593; cynoSIRPβ1v3; not shown: His-tag
T11 chain: T6 chain
Method: (§2) The binding affinity of anti-SIRPα antibodies to the various SIRPα analytes is determined by surface plasmon resonance (SPR) using a ProteOn XPR36 (Bio-Rad). The running buffer for this experiment and all dilutions (except where stated) are done in 1×HBS-EP+. […] The sensorchip is deactivated with 1M ethanolamine HCl for 420 sec at a flowrate of 10 μl/min.
(§3) The analyte is injected over the captured antibody for 300 sec at a flowrate of 30 μl/min. The dissociation is done for 600 sec. Two-fold serial dilutions of each SIRP protein (Extracellular Domain+His-Tag) are injected as analyte with the highest concentrations indicated in table 36 below.

[12] = target: T12, cynomolgus SIRPα (NP_001271679) extracellular domain + His-tag (cynomolgus monkey); assay: SPR, antibody captured, ECD-His analyte
T12 construct: SPR analyte; also called CySIRPα NP_001271679; cynoSIRPα; not shown: His-tag
T12 chain: T4 chain
Method: as §2, §3

[13] = target: T13, cynomolgus SIRPγ (XP_005568591) extracellular domain + His-tag (cynomolgus monkey, UniProt Q9P1W8 29-359 (human entry)); assay: SPR
T13 construct: SPR analyte; also called Cyno SIRPγ XP_005568591; cynoSIRPγ; not shown: His-tag
T13 chain: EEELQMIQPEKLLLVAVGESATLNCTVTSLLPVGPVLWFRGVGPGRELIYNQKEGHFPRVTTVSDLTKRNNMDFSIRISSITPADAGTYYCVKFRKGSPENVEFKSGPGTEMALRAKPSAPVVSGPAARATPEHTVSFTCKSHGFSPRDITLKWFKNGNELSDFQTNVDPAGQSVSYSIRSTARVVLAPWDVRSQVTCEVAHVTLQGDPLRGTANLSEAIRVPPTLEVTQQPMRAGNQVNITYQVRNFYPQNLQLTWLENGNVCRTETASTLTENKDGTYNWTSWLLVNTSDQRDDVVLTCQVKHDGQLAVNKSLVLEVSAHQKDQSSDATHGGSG
Method: as §2, §3

[14] = target: T14, cynomolgus SIRPα (EGM_02252) extracellular domain + His-tag (cynomolgus monkey); assay: SPR
T14 construct: SPR analyte; also called CySIRPα EGM_02252; cynoSIRPα; not shown: His-tag
T14 chain: T7 chain
Method: as §2, §3

[15] = target: T15, cynomolgus SIRPβ1 (XP_005568598) extracellular domain + His-tag (cynomolgus monkey); assay: SPR
T15 construct: SPR analyte; also called Cyno SIRPβ1 XP_005568598; cynoSIRPβ1; not shown: His-tag
T15 chain: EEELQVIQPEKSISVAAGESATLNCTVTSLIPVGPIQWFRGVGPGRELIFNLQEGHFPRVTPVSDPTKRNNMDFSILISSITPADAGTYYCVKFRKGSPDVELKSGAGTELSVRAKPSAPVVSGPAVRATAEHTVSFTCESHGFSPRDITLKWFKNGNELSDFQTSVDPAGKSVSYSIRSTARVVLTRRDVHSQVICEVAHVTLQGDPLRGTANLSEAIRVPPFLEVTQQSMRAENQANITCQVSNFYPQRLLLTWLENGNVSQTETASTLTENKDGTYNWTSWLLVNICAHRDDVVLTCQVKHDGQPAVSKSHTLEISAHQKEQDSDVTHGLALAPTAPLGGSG
Method: as §2, §3

T1 sequence (Q5TFQ8 other isoform, or with tags, fused parts or gaps): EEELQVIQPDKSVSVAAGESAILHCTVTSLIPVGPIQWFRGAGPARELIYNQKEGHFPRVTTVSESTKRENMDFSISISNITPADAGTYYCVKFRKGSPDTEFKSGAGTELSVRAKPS
T9 sequence (Q5TFQ8 other isoform, or with tags, fused parts or gaps): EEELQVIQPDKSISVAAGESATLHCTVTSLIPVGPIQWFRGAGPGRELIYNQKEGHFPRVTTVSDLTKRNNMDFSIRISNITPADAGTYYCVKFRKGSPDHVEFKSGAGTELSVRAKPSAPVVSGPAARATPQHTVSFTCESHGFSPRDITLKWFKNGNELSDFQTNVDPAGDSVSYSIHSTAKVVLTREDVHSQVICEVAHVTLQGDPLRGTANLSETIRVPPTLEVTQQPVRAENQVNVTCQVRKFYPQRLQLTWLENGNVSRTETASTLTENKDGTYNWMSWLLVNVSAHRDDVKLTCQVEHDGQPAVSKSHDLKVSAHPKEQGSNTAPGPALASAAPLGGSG
T2 sequence (Q9P1W8 29-387): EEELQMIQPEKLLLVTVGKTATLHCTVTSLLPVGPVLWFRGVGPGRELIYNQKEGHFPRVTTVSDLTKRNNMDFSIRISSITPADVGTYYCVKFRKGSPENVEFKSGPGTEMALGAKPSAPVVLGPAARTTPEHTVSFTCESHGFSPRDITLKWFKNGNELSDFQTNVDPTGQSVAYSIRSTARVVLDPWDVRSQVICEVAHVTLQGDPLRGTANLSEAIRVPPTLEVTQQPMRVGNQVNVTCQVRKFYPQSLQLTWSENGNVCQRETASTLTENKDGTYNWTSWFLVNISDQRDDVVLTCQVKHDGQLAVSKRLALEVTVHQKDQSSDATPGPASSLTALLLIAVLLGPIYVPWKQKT
T8 sequence (Q9P1W8 29-360): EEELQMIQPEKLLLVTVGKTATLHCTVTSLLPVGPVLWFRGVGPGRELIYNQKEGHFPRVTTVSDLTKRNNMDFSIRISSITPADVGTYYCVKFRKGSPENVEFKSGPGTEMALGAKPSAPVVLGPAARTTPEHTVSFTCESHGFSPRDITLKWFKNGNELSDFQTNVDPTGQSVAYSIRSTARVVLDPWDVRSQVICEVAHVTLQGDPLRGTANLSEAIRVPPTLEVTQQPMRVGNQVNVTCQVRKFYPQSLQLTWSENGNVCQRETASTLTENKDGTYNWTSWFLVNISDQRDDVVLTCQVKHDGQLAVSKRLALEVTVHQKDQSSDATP
T10 sequence (O00241 other isoform, or with tags, fused parts or gaps): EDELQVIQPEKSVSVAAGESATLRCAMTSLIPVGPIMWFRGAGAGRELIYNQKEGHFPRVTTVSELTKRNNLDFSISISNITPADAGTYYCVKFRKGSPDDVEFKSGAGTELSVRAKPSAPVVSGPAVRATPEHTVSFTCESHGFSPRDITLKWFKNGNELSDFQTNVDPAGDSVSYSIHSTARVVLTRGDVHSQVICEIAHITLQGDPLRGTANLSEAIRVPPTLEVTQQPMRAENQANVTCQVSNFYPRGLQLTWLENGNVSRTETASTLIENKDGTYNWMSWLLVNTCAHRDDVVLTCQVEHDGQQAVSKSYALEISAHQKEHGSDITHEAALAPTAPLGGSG
T3 sequence (Q5TFQ8 30-398): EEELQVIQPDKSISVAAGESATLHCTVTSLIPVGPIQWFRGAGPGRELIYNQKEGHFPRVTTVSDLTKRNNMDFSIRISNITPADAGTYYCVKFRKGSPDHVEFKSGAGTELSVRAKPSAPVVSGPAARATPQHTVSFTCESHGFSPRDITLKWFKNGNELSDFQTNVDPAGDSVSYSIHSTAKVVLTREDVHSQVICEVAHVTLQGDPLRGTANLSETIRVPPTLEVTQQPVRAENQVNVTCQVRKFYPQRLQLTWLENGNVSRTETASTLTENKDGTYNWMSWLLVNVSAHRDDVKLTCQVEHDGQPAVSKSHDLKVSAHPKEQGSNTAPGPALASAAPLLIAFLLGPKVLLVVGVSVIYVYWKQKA

B1: Fab fragment of Antibody A (Fab, V domains shown)
VH: EVQLVESGGGLVQPGGSLRLSCAASGFTLSSYDMHWVRQATGKGLEWVSAIGTAGDTYYTGSVKGRFTISRENAKNSLYLQMNSLRAGDTAVYYCVRGGVWDDAFDIWGQGTMVTVSS
VL: DIQMTQSPSSLSASVGDRVTITCRASQDINNYLAWFQQKPGKAPKSLIYTASSLHSGVPSKFSGSGSGTDFTLTISSLQPEDFATYYCQQYVSYPYTFGQGTKLEIK
notes: Fab; also called Fab of Antibody A
binding result [1]: binds

B2: Antibody F (antibody, human IgG4 S228P, kappa)
heavy: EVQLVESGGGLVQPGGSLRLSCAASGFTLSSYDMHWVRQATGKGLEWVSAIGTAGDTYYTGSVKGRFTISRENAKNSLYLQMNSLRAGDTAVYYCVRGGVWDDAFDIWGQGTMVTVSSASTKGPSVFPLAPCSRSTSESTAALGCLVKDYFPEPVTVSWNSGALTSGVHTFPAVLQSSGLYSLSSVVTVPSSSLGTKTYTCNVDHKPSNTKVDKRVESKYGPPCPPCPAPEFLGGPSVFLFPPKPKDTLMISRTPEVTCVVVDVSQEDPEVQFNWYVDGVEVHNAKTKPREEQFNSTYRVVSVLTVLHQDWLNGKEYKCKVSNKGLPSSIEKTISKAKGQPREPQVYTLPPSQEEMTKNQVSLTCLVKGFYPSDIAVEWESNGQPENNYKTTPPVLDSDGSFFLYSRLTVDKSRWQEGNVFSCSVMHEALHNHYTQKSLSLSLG
light: DIQMTQSPSSLSASVGDRVTITCRASQDINNYLAWFQQKPGKAPKSLIYTASSLHSGVPSKFSGSGSGTDFTLTISSLQPEDFATYYCQQYVSYPYTFGQGTKLEIKRTVAAPSVFIFPPSDEQLKSGTASVVCLLNNFYPREAKVQWKVDNALQSGNSQESVTEQDSKDSTYSLSSTLTLSKADYEKHKVYACEVTHQGLSSPVTKSFNRGEC
binding result [2]: no binding
binding result [3]: no binding
Kd [4]: 506 nM
binding result [5]: no binding
Kd [6]: 227 nM
Kd [7]: 230 nM
binding result [8]: no binding (tested: 1000 nM)
binding result [9]: no binding (tested: 100 nM)
Kd [10]: 84 nM

B3: Antibody E16 (antibody, human IgG1, kappa, L234A L235A, V domains shown)
VH: QVQLQESGPGLVRPSETLSLTCTVSGGSIRNYYWSWIRQPPGKGLEWIGFIYYNGRTFYNPSLKSRVTISLDTSKNQFSLKMTSVTAADTAVYYCARVRAYSGIGLDGTDVWGQGTTVTVSS
VL: DIVMTQSPLSLPVTPGEPASISCKSSQSLLYSNAYNYLDWYLQRPGQSPQLLIYLGSNRASGVPDRFSGSGSGTDFTLKISRVEAEDVGVYYCMQALQTPLTFGGGTKVEIKR
Kd [11]: 30.3 nM
Kd [12]: 50.3 nM
binding result [13]: no binding (tested: 1000 nM)
binding result [14]: no binding (tested: 1000 nM)
binding result [15]: no binding (tested: 1000 nM)
